Laboratory results: article PMC3107197

Molecular target: GFP-tagged Fab1p (yeast) [yeast]
Experiment: co-immunoprecipitation (IP: Fab1p-GFP), densitometry
Settings: Bound fraction; parent: 1

ratio to parent: 0.4
Substance: myc-tagged Fig4p (wildtype, yeast) mutant I59T [yeast] / GFP-tagged Fab1p (yeast) [yeast] chain 1 I59T
